# Experimental data reported in patent EP2388325A1 (RLP AgroScience GmbH, dated 2011).
# B1: Trx-cupin-protein-His-protein (A. thaliana cupin protein expressed from pET32a(+)) (other)
# chain: MGCIGVVNVTSINPYLTRRSNKPYNSRRPSSMAAAIRAESTEKLGITIEKNPPESKLTQLGVRSWPKWGCPPSKFPWTYSAKETCYLLQGKVKVYPNGSDEGVEIEAGDFVVFPKGMSCTWDVSVAVDKHYQFE
# notes: Expressed in BL21 (DE3) codon plus, purified by the His-tag; 34 kDa monomer; also called Tm-cupin-protein-His-protein; Trx-QP-His-protein; not shown: N-terminal pET32a(+) tags: thioredoxin (Trx-tag), 6 X His-tag, S-Tag, enterokinase site; C-terminal 6 X His-tag from pET32a(+)
# Experiments:
# [1] = molecular target: MBP:HA-HC-Pro fusion protein (ZYMV HC-Pro fused to the C-terminus of maltose binding protein, HA-tag between … (zucchini yellow mosaic virus (ZYMV), UniProt P0AEX9 27-396 = MBP)); assay: cell-based or functional assay
# [2] = molecular target: the molecule itself; assay: Western blot / Coomassie gel after Ni-NTA purification (self-association)
binder,measurement,setting,value
B1,"gelshift (EMSA): binding of 21 bp siRNA-double strands by MBP-HA-HC-Pro, signal intensities (Quantity One)",[1],3 fold
same,binding result,[2],binds
